In publication PMC9335864 (Journal of the American Chemical Society, 2022):
Numbering of substitutions follows the chain as printed. Where two headings read alike, the source gives them in different places.

T1: p47-UBX domain (Homo sapiens, biotin (site not stated) where anchored on the BLI sensor tip)
T1 chain: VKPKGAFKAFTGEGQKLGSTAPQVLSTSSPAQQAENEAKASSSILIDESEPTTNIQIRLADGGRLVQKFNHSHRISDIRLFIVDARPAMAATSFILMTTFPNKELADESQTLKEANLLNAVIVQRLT

T2: p37-UBX domain (Homo sapiens)
T2 chain: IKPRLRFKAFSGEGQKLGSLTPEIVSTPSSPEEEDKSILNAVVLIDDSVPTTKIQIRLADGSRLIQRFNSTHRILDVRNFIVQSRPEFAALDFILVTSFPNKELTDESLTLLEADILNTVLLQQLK

T3: C-terminal Halo-tagged p47-UBX domain (Homo sapiens)
T3 chain: T1 chain

B1: scFv-A04 (antibody, V domains shown)
VH: QVQLVESGGGLVQPGGSLRLSCAASGFNVYSSSIHWVRQAPGKGLEWVASIYPSYGSTYYADSVKGRFTISADTSKNTAYLQMNSLRAEDTAVYYCARSYEWKYSYYRGGFDYWGQGTLVTVSS
VL: DIQMTQSPSSLSASVGDRVTITCRASQSVSSAVAWYQQKPGKAPKLLIYSASSLYSGVPSRFSGSRSGTDFTLTISSLQPEDFATYYCQQGYYLPVTFGQGTKVEIK
B2: scFv-A06 (scFv, V domains shown)
VH: QVQLVESGGGLVQPGGSLRLSCAASGFNISSYSMHWVRQAPGKGLEWVASISSSYGSTYYADSVKGRFTISADTSKNTAYLQMNSLRAEDTAVYYCARSDWYYGDAWGVPYYAFDYWGQGTLVTVSS
VL: DIQMTQSPSSLSASVGDRVTITCRASQSVGSALAWYQQKPGKAPKLLIYSASSLYSGVPSRFSGSRSGTDFTLTISSLQPEDFATYYCQQSWFLITFGQGTKVEIK
B3: scFv-B01 (scFv, V domains shown)
VH: QVQLVESGGGLVQPGGSLRLSCAASGFNISSYYMHWVRQAPGKGLEWVASIYPSYSSTSYADSVKGRFTISADTSKNTAYLQMNSLRAEDTAVYYCARSSDYDRYWYWSYDAFDYWGQGTLVTVSS
VL: B2 VL with F93D, I95F
B4: scFv-G08 (scFv, V domains shown)
VH: QVQLVESGGGLVQPGGSLRLSCAASGFNISYSYIHWVRQAPGKGLEWVAYIYPYSGSTYYADSVKGRFTISADTSKNTAYLQMNSLRAEDTAVYYCARDPHWAMDYWGQGTLVTVSS
VL: DIQMTQSPSSLSASVGDRVTITCRASQSVGSALAWYQQKPGKAPKLLIYSASSLYSGVPSRFSGSRSGTDFTLTISSLQPEDFATYYCQQSFSSVPFTFGQGTKVEIK
B5: full-length p47 (natural protein, human, UniProt Q9UNZ2 1-370, looked up)
chain: MAAERQEALREFVAVTGAEEDRARFFLESAGWDLQIALASFYEDGGDEDIVTISQATPSSVSRGTAPSDNRVTSFRDLIHDQDEDEEEEEGQRFYAGGSERSGQQIVGPPRKKSPNELVDDLFKGAKEHGAVAVERVTKSPGETSKPRPFAGGGYRLGAAPEEESAYVAGEKRQHSSQDVHVVLKLWKSGFSLDNGELRSYQDPSNAQFLESIRRGEVPAELRRLAHGGQVNLDMEDHRDEDFVKPKGAFKAFTGEGQKLGSTAPQVLSTSSPAQQAENEAKASSSILIDESEPTTNIQIRLADGGRLVQKFNHSHRISDIRLFIVDARPAMAATSFILMTTFPNKELADESQTLKEANLLNAVIVQRLT
B6: scFv-E04 (scFv, V domains shown)
VH: QVQLVESGGGLVQPGGSLRLSCAASGFNFSSYSIHWVRQAPGKGLEWVASISPYYGSTYYADSVKGRFTISADTSKNTAYLQMNSLRAEDTAVYYCARYKYYMSGRYTWALDYWGQGTLVTVSS
VL: B1 VL with G91E, Y92F, Y93F, L94V, V96F
B7: scFv-A06 with C-terminal HA tag, expressed in cells (scFv, V domains shown)
VH: B2 VH
VL: B2 VL
B8: scFab-A06 with C-terminal HA tag, expressed in cells (Fab, V domains shown)
VH: B2 VH with Q1E
VL: B2 VL
B9: scFab-NLS A06 with C-terminal HA tag, expressed in cells (Fab, V domains shown)
VH: B2 VH with Q1E
VL: B2 VL
B10: scFv-E04 with C-terminal HA tag, expressed in cells (scFv, V domains shown)
VH: B6 VH
VL: B1 VL with G91E, Y92F, Y93F, L94V, V96F
B11: scFab-E04 with C-terminal HA tag, expressed in cells (Fab, V domains shown)
VH: B6 VH with Q1E
VL: B1 VL with G91E, Y92F, Y93F, L94V, V96F
B12: scFab-NLS E04 with C-terminal HA tag, expressed in cells (Fab, V domains shown)
VH: B6 VH with Q1E
VL: B1 VL with G91E, Y92F, Y93F, L94V, V96F

Legend:
[1] = target: T1, p47-UBX domain
[2] = target: full-length p47 (human, UniProt Q9UNZ2); test: SPR; competition: as for p47-UBX but with full-length p47 on immobilised p97 (Figure S7); conditions: both partners purified
[3] = target: T1, p47-UBX domain; test: BLI; biotinylated p47-UBX anchored on the sensor tip; increasing amounts of each scFv; dose-response profiles; conditions: both partners purified
[4] = target: T2, p37-UBX domain; test: BLI; selectivity of the scFvs against the p97-binding domains of other adaptor proteins (NPL4-UBXL, FAF1-UBX, p37-UBX) beside p47-UBX; set-up not told in the main text; conditions: both partners purified
[5] = target: T1, p47-UBX domain; test: SPR; competition: biotinylated full-length p97 on a streptavidin chip; mixture of increasing concentrations of scFv and a fixed concentration of p47-UBX flowed over; with 100 uM ATP or 100 uM ADP; conditions: both partners purified
[6] = target: full-length human p97 (human, UniProt P55072 1-806, biotin (site not stated)); test: SPR; competition: as for p47-UBX but with full-length p47 on immobilised p97 (Figure S7); conditions: both partners purified
[7] = target: p97 (endogenous) (human (endogenous in U2OS), UniProt P55072); test: co-IP; co-IP of p97 from U2OS cells expressing scFv-A06 (Figure S10); conditions: partners not purified
[8] = target: p47 (endogenous) (human (endogenous in U2OS), UniProt Q9UNZ2); test: co-IP; co-IP of p47 from lysates of U2OS cells transfected with plasmids for HA-tagged antibody fragments; p47-containing complexes captured and blotted; conditions: partners not purified
[9] = target: T3, C-terminal Halo-tagged p47-UBX domain; test: FRET or BRET; NanoBRET in p47-knockout U2OS cells: Nanoluciferase-p97-N donor, p47-UBX-HaloTag acceptor, co-transfected with antibody-fragment or p47-FLAG plasmids; compared with scFv-RNase and scFab-RNase controls; conditions: partners not purified

Chain of p97 (endogenous) (P55072 whole entry, the tested form may be a part): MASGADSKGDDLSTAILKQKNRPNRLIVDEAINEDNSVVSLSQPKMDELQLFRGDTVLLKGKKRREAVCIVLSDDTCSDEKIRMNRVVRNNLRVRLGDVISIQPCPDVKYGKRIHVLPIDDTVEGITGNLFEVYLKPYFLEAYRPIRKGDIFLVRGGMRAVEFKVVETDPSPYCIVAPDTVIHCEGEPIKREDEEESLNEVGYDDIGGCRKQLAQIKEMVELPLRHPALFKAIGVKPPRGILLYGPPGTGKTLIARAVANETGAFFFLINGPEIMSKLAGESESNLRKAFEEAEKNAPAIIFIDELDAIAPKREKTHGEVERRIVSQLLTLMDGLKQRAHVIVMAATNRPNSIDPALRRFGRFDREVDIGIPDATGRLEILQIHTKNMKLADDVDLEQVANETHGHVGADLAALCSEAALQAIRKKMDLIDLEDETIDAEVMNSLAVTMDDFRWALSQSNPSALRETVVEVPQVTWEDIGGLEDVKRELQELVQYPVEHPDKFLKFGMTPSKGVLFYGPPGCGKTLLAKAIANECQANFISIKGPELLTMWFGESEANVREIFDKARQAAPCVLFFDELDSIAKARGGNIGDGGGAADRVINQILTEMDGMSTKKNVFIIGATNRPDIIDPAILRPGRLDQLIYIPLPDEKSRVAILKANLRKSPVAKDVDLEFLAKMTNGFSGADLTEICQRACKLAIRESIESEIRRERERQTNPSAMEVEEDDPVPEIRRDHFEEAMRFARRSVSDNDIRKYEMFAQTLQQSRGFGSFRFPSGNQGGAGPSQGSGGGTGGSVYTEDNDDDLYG
Chain of full-length human p97 (P55072 whole entry): as the sequence (P55072 whole entry, the tested form may be a part) above

Row | Binder | binding result [2] | binding result [8] | also measured
1 | B1 | – | – | binding result [1]: binds
2 | B2 | binds | – | Kd [3]: ~3 nM; binding result [4]: no binding
3 | B3 | binds | – | binding result [5]: binds
4 | B4 | binds | – | binding result [5]: binds
5 | B5 | – | – | binding result [6]: binds
6 | B6 | binds | – | Kd [3]: ~7 nM; Kd [4]: ~4 nM
7 | B7 | – | binds | binding result [7]: binds; reduction of the BRET ratio of the p97-N/p47-UBX pair [9]: ~15%
8 | B8 | – | binds | –
9 | B9 | – | binds | –
10 | B10 | – | binds | –
11 | B11 | – | binds | –
12 | B12 | – | binds | –
